# According to US20020150888A1 (published 2002):
# Like-named read-outs stand apart in the source and are kept apart here.
# B1: FLAG-tagged 88C receptor (receptor)
# chain: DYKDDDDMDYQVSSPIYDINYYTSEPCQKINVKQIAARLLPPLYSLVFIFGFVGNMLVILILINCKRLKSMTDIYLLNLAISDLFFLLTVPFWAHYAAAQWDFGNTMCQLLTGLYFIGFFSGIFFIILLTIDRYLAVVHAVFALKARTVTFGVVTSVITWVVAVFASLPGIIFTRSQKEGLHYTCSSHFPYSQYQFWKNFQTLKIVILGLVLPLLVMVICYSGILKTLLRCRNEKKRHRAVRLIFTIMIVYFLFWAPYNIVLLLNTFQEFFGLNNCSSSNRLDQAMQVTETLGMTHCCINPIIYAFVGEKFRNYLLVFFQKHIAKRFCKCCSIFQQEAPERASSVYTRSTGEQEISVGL
# B2: MIP-1β (ligand, UniProt P13236 24-92, looked up)
# chain: APMGSDPPTACCFSYTARKLPRNFVVDYYETSSLCSQPAVVFQTKRSKQVCADPSESWVQEYVYDLELN
# notes: also called MIP-1p
# Columns and labels:
# [1] = target: FLAG-tagged 88C receptor (human); experiment: competition of unlabelled ligand with 1.5 nM 125I-MIP-1β on HEK-293 cells transfected with FLAG-tagged 88C
# [2] = target: FLAG-tagged 88C receptor (human); experiment: cell-based or functional assay
# [3] = target: B1; experiment: competition of unlabelled ligand with 1.5 nM 125I-MIP-1β on HEK-293 cells transfected with FLAG-tagged 88C
# [4] = target: B1; experiment: cell-based or functional assay
# [5] = target: B2; experiment: equilibrium binding of 125I-MIP-1β to HEK-293 cells transfected with FLAG-tagged 88C, Scatchard analysis
Molecule,IC50 [1],"EC50 of inositol phosphate formation (phospholipase C assay, COS-7 cells co-transfected with Gqi5) [2]",IC50 [3],"EC50 of inositol phosphate formation (phospholipase C assay, COS-7 cells co-transfected with Gqi5) [4]",Kd [5]
MIP-1α (from UniProt P10147 24-92) (ligand),7.4 nM,22 nM,,,
"RANTES (ligand, UniProt P13501 24-91, looked up) SPYSSDTTPCCFAYIARPLPRAHIKEYFYTSGKCSNPAVVFVTRKNRQVCANPEKKWVREYINSLEMS",,,6.9 nM,1 nM,
B1,,,,,1.6 nM
B2,,,7.4 nM,6 nM,
